Changes are numbered by the printed parent chain. In names and notes the source's numbering stands. Values belong to the binder of their own block, whether it stands above or below them.
How the values were obtained:
[1] = target: T1, TGF-β3 (Homo sapiens, UniProt P10600); experiment: not stated on the sheet; drawn table of Kd of TβRII variants (paragraph 345 cites Groppe et al. 2008 and De Crescenzo et al. 2006)
T1 construct: also called transforming growth factor beta 3
T1 sequence (TGF-β3 polypeptide, looked up): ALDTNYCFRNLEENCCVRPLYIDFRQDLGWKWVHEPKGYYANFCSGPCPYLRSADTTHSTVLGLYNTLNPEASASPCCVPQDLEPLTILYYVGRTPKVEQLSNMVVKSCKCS

[2] = target: T2, TGF-β1 (Homo sapiens, UniProt P01137); experiment: as above
T2 construct: also called transforming growth factor beta 1
T2 sequence (P01137 279-390 limits assumed): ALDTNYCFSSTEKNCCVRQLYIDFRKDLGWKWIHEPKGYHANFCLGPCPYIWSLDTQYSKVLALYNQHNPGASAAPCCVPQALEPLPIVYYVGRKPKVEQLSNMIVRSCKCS

B1: Δ14 (receptor)
TβRII polypeptide: VTDNNGAVKFPQLCKFCDVRFSTCDNQKSCMSNCSITSICEKPQEVCVAVWRKNDENITLETVCHDPKLPYHDFILEDAASPKCIMKEKKKPGETFFMCSCSSDECNDNIIFSEEYNTSNPD
notes: also called TβRII Δ14 (N-terminal aas 1-14 deleted)
Kd [1]: 680 nM | Kd [2]: 320 nM

B2: D32A (receptor)
TβRII polypeptide: IPPHVQKSVNNDMIVTDNNGAVKFPQLCKFCAVRFSTCDNQKSCMSNCSITSICEKPQEVCVAVWRKNDENITLETVCHDPKLPYHDFILEDAASPKCIMKEKKKPGETFFMCSCSSDECNDNIIFSEEYNTSNPDLLLVIFQ
notes: also called TβRII D32A
Kd [2]: 3520 nM

B3: T51A (receptor)
TβRII polypeptide: B2 TβRII polypeptide with A32D, T51A
notes: also called TβRII T51A
Kd [2]: 2970 nM

B4: I50A (receptor)
TβRII polypeptide: B2 TβRII polypeptide with A32D, I50A
notes: also called TβRII I50A
Kd [2]: 7960 nM

B8: I53A (receptor)
TβRII polypeptide: B2 TβRII polypeptide with A32D, I53A
notes: also called TβRII I53A
Kd [2]: 2490 nM

B11: S52L (receptor)
TβRII polypeptide: B2 TβRII polypeptide with A32D, S52L
notes: also called TβRII S52L
Kd [2]: 154000 nM

B12: D32N (receptor)
TβRII polypeptide: B2 TβRII polypeptide with A32N
notes: also called TβRII D32N
Kd [2]: 5900 nM

B15: L27A (receptor)
TβRII polypeptide: B2 TβRII polypeptide with L27A, A32D
notes: also called TβRII L27A
Kd [2]: 7970 nM

B16: V77A (receptor)
TβRII polypeptide: B2 TβRII polypeptide with A32D, V77A
notes: also called TβRII V77A
Kd [2]: 690 nM

Continued by falling Kd [2], values first:

Kd [2]: 44000 nM
B9: F30A (receptor)
TβRII polypeptide: B2 TβRII polypeptide with F30A, A32D
notes: also called TβRII F30A

Kd [2]: 5950 nM
B7: E119Q (receptor)
TβRII polypeptide: B2 TβRII polypeptide with A32D, E119Q
notes: also called TβRII E119Q

Kd [2]: 3350 nM
B14: E119A (receptor)
TβRII polypeptide: B2 TβRII polypeptide with A32D, E119A
notes: also called TβRII E119A

Kd [2]: 2990 nM
B5: E55A (receptor)
TβRII polypeptide: B2 TβRII polypeptide with A32D, E55A
notes: also called TβRII E55A

Kd [2]: 1510 nM
B13: D118A (receptor)
TβRII polypeptide: B2 TβRII polypeptide with A32D, D118A
notes: also called TβRII D118A

Kd [2]: 790 nM
B6: S49A (receptor)
TβRII polypeptide: B2 TβRII polypeptide with A32D, S49A
notes: also called TβRII S49A

Kd [2]: 600 nM
B10: S52A (receptor)
TβRII polypeptide: B2 TβRII polypeptide with A32D, S52A
notes: also called TβRII S52A

Source: patent US20220372093A1 (CUE BIOPHARMA, published 2022)
